{"source": "patent US20260132178A1", "about": "(SYNERKINE PHARMA B V, published 2026)", "test_in_all_cases": "cell-based or functional assay", "key": {"IL10 receptor": {"target": "T1, IL10 receptor (UniProt Q13651 22-578; Q08334 20-325, limits assumed)", "T1 sequence (looked up) 1": "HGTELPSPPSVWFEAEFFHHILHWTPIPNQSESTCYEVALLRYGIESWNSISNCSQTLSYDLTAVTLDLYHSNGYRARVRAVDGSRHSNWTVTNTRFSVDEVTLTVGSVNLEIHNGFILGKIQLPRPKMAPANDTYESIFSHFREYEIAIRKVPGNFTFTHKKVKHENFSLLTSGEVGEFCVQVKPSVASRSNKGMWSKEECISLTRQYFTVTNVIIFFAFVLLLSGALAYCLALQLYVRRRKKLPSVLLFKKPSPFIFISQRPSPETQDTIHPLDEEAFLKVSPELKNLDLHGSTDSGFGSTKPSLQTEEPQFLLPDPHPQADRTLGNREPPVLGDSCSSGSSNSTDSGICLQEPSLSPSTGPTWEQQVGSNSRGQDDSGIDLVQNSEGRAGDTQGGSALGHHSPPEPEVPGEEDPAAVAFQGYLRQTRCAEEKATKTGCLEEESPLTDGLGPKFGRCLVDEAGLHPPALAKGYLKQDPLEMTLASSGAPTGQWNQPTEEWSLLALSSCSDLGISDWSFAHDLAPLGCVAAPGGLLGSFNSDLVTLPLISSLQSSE", "T1 sequence (looked up) 2": "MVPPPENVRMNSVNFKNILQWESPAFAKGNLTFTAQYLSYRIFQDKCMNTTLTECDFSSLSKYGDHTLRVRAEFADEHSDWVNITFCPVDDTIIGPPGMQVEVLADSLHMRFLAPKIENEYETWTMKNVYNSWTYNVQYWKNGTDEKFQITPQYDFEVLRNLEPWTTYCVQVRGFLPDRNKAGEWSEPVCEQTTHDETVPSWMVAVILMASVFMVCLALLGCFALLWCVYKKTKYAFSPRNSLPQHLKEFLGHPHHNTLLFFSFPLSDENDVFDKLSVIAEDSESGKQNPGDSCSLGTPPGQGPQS"}, "mIL4Ra/mIL13Ra2": {"target": "mIL4Ra/mIL13Ra2 (mouse, UniProt P16382 26-257; O88786 22-355)", "sequence (P16382 26-257, chain 1 of 2)": "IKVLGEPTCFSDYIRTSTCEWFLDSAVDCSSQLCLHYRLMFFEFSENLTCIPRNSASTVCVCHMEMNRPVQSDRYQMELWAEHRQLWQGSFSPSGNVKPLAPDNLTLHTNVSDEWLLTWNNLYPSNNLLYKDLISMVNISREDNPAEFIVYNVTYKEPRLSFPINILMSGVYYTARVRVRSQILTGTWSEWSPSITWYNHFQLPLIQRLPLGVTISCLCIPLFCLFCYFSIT", "sequence (O88786 22-355, chain 2 of 2)": "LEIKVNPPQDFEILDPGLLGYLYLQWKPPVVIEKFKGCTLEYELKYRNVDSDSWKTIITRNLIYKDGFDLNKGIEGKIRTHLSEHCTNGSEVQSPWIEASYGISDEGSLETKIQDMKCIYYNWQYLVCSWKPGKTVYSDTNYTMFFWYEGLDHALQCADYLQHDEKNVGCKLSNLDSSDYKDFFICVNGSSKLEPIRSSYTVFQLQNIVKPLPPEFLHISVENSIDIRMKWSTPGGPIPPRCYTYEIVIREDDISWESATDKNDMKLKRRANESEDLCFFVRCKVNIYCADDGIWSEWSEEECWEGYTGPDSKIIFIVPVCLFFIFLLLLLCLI"}, "IL4 (type II) receptor": {"target": "T2, IL4 (type II) receptor (UniProt P24394 26-825; P78552 22-427, limits assumed)", "T2 sequence (looked up) 1": "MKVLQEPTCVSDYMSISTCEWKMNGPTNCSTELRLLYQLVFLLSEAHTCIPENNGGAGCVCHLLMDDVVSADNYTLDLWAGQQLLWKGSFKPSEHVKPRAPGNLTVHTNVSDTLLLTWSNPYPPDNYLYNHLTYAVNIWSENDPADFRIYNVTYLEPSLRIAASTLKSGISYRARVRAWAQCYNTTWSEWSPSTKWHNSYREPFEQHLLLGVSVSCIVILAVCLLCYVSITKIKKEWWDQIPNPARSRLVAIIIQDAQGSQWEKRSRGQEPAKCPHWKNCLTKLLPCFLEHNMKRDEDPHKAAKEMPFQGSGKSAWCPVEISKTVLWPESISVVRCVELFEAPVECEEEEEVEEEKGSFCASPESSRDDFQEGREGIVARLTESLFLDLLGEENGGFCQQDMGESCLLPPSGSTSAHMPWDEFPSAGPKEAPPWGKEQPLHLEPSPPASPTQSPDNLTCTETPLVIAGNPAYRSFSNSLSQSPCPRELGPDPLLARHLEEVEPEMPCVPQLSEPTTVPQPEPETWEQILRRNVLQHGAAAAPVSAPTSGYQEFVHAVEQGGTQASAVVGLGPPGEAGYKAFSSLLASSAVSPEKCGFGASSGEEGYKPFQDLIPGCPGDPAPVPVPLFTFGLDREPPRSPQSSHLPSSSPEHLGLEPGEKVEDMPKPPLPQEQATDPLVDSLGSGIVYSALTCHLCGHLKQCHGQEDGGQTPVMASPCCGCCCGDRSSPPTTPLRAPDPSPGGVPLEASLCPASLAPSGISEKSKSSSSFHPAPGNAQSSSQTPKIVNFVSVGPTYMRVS", "T2 sequence (looked up) 2": "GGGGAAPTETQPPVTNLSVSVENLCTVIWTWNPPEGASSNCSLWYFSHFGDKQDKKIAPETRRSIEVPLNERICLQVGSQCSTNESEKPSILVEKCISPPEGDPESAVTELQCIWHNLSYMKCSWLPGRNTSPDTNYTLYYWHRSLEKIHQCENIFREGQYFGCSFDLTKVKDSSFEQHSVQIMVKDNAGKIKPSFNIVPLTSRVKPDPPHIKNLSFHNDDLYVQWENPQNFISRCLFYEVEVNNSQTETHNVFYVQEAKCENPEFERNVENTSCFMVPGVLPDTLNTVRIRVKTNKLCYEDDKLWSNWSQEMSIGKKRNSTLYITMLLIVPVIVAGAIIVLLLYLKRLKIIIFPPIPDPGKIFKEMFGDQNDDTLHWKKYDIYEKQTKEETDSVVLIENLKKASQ"}}}
{"binder": "IL4-10 fusion (wt, dimer) (ligand) HKCDITLQEIIKTLNSLTEQKTLCTELTVTDIFAASKNTTEKETFCRAATVLRQFYSHHEKDTRCLGATAQQFHRHKQLIRFLKRLDRNLWGLAGLNSCPVKEANQSTLENFLERLKTIMREKYSKCSSGSGGGGSGTSPGQGTQSENSCTHFPGNLPNMLRDLRDAFSRVKTFFQMKDQLDNLLLKESLLEDFKGYLGCQALSEMIQFYLEEVMPQAENQDPDIKAHVNSLGENLKTLRLRLRRCHRFLPCENKSKAVEQVKNAFNKLQEKGIYKAMSEFDIFINYIEAYMTMKIRN", "values": [{"measurement": "HEK-Blue IL10 EC50 (STAT-3 mediated SEAP expression)", "setting": "IL10 receptor", "value": 0.0289, "unit": "nM"}]}
{"binder": "IL4-10M(J) (ligand) HKCDITLQEIIKTLNSLTEQKTLCTELTVTDIFAASKNTTEKETFCRAATVLRQFYSHHEKDTRCLGATAQQFHRHKQLIRFLKRLDRNLWGLAGLNSCPVKEANQSTLENFLERLKTIMREKYSKCSSGSGGGGSGTSPGQGTQSENSCTHFPGNLPNMLRDLRDAFSRVKTFFQMKDQLDNLLLKESLLEDFKGYLGCQALSEMIQFYLEEVMPQAENQDPDIKAHVNSLGENLKTLRLRLRRCHRFLPCENGGGSGGKSKAVEQVKNAFNKLQEKGIYKAMSEFDIFINYIEAYMTMKIRN", "values": [{"measurement": "HEK-Blue IL10 EC50 (STAT-3 mediated SEAP expression)", "setting": "IL10 receptor", "value": 0.0778, "unit": "nM"}]}
{"binder": "IL10M(J) (ligand) SPGQGTQSENSCTHFPGNLPNMLRDLRDAFSRVKTFFQMKDQLDNLLLKESLLEDFKGYLGCQALSEMIQFYLEEVMPQAENQDPDIKAHVNSLGENLKTLRLRLRRCHRFLPCENGGGSGGKSKAVEQVKNAFNKLQEKGIYKAMSEFDIFINYIEAYMTMKIRN", "values": [{"measurement": "HEK-Blue IL10 EC50 (STAT-3 mediated SEAP expression)", "setting": "IL10 receptor", "value": 0.0634, "unit": "nM"}]}
{"binder": "IL4-13 (mouse) (ligand) HHHHHHIHGCDKNHLREIIGILNEVTGEGTPCTEMDVPNVLTATKNTTESELVCRASKVLRIFYLKHGKTPCLKKNSSVLMELQRLFRAFRCLDSSISCTMNESKSTSLKDFLESLKSIMQMDYSGSGGGGSGTAPGPVPRSVSLPLTLKELIEELSNITQDQTPLCNGSMVWSVDLAAGGFCVALDSLTNISNCNAIYRTQRILHGLCNRKAPTTVSSLPDTKIEVAHFITKLLSYTKQLFRHGPF", "values": [{"measurement": "Heterologous clustering mIL4Ra/mIL13Ra2 EC50 (NanoBiT enzyme complementation)", "setting": "mIL4Ra/mIL13Ra2", "value": 187, "unit": "pM"}]}
{"binder": "IL4-Fc (Fc fusion) HKCDITLQEIIKTLNSLTEQKTLCTELTVTDIFAASKNTTEKETFCRAATVLRQFYSHHEKDTRCLGATAQQFHRHKQLIRFLKRLDRNLWGLAGLNSCPVKEANQSTLENFLERLKTIMREKYSKCSSGSGGGGSGTCPPCPAPELLGGPSVFLFPPKPKDTLMISRTPEVTCVVVDVSHEDPEVKFNWYVDGVEVHNAKTKPREEQYNSTYRVVSVLTVLHQDWLNGKEYKCKVSNKALPAPIEKTISKAKGQPREPQVCTLPPSRDELTKNQVSLSCAVKGFYPSDIAVEWESNGQPENNYKTTPPVLDSDGSFFLVSKLTVDKSRWQQGNVFSCSVMHEALHNHYTQKSLSLSPGK", "values": [{"measurement": "HEK-Blue IL4/13 EC50 (STAT6-induced SEAP expression)", "setting": "IL4 (type II) receptor", "value": 0.0201, "unit": "nM"}]}
{"binder": "IL4-10M(J) mouse Fc (Fc fusion) chain 1: HKCDITLQEIIKTLNSLTEQKTLCTELTVTDIFAASKNTTEKETFCRAATVLRQFYSHHEKDTRCLGATAQQFHRHKQLIRFLKRLDRNLWGLAGLNSCPVKEANQSTLENFLERLKTIMREKYSKCSSGSGGGGSGTCKPCICTVPEVSSVFIFPPKPKDVLTITLTPKVTCVVVAISKDDPEVQFSWFVDDVEVHTAQTKPREEQINSTFRSVSELPIMHQDWLNGKEFKCRVNSAAFPAPIEKTISKTKGRPKAPQVYTIPPPKKQMAKDKVSLTCMITNFFPEDITVEWQWNGQPAENYKNTQPIMKTDGSYFVYSKLNVQKSNWEAGNTFTCSVLHEGLHNHHTEKSLSHSPGK chain 2: SPGQGTQSENSCTHFPGNLPNMLRDLRDAFSRVKTFFQMKDQLDNLLLKESLLEDFKGYLGCQALSEMIQFYLEEVMPQAENQDPDIKAHVNSLGENLKTLRLRLRRCHRFLPCENGGGSGGKSKAVEQVKNAFNKLQEKGIYKAMSEFDIFINYIEAYMTMKIRNTGSGGGGSGTCKPCICTVPEVSSVFIFPPKPKDVLTITLTPKVTCVVVAISKDDPEVQFSWFVDDVEVHTAQTKPREEQINSTFRSVSELPIMHQDWLNGKEFKCRVNSAAFPAPIEKTISKTKGRPKAPQVYTIPPPKEQMAKDKVSLTCMITNFFPEDITVEWQWNGQPAENYKNTQPIMDTDGSYFVYSELNVQKSNWEAGNTFTCSVLHEGLHNHHTEDSLSHSPGK", "values": [{"measurement": "HEK-Blue IL10 EC50 (STAT-3 mediated SEAP expression)", "setting": "IL10 receptor", "value": 0.52, "unit": "nM"}]}
{"binder": "IL4-13 Fc (mouse) (Fc fusion) chain 1: HIHGCDKNHLREIIGILNEVTGEGTPCTEMDVPNVLTATKNTTESELVCRASKVLRIFYLKHGKTPCLKKNSSVLMELQRLFRAFRCLDSSISCTMNESKSTSLKDFLESLKSIMQMDYSGSGGGGSGTCKPCICTVPEVSSVFIFPPKPKDVLTITLTPKVTCVVVAISKDDPEVQFSWFVDDVEVHTAQTKPREEQINSTFRSVSELPIMHQDWLNGKEFKCRVNSAAFPAPIEKTISKTKGRPKAPQVYTIPPPKKQMAKDKVSLTCMITNFFPEDITVEWQWNGQPAENYKNTQPIMKTDGSYFVYSKLNVQKSNWEAGNTFTCSVLHEGLHNHHTEKSLSHSPGK chain 2: APGPVPRSVSLPLTLKELIEELSNITQDQTPLCNGSMVWSVDLAAGGFCVALDSLTNISNCNAIYRTQRILHGLCNRKAPTTVSSLPDTKIEVAHFITKLLSYTKQLFRHGPFTGSGGGGSGTCKPCICTVPEVSSVFIFPPKPKDVLTITLTPKVTCVVVAISKDDPEVQFSWFVDDVEVHTAQTKPREEQINSTFRSVSELPIMHQDWLNGKEFKCRVNSAAFPAPIEKTISKTKGRPKAPQVYTIPPPKEQMAKDKVSLTCMITNFFPEDITVEWQWNGQPAENYKNTQPIMDTDGSYFVYSELNVQKSNWEAGNTFTCSVLHEGLHNHHTEDSLSHSPGK", "values": [{"measurement": "Heterologous clustering mIL4Ra/mIL13Ra2 EC50 (NanoBiT enzyme complementation)", "setting": "mIL4Ra/mIL13Ra2", "value": 1100, "unit": "pM"}]}
{"binder": "IL4-10M(S) (ligand) KSKAVEQVKNAFNKLQEKGIYKAMSEFDIFINYIEAYMTMKIRNGSGGGGSGTSPGQGTQSENSCTHFPGNLPNMLRDLRDAFSRVKTFFQMKDQLDNLLLKESLLEDFKGYLGCQALSEMIQFYLEEVMPQAENQDPDIKAHVNSLGENLKTLRLRLRRCHRFLPCENGSGGGGSGTHKCDITLQEIIKTLNSLTEQKTLCTELTVTDIFAASKNTTEKETFCRAATVLRQFYSHHEKDTRCLGATAQQFHRHKQLIRFLKRLDRNLWGLAGLNSCPVKEANQSTLENFLERLKTIMREKYSKCSSHHHHHH", "values": [{"measurement": "HEK-Blue IL10 EC50 (STAT-3 mediated SEAP expression)", "setting": "IL10 receptor", "value": 0.117, "unit": "nM"}]}
{"binder": "IL10M(S) (ligand) KSKAVEQVKNAFNKLQEKGIYKAMSEFDIFINYIEAYMTMKIRNGSGGGGSGTSPGQGTQSENSCTHFPGNLPNMLRDLRDAFSRVKTFFQMKDQLDNLLLKESLLEDFKGYLGCQALSEMIQFYLEEVMPQAENQDPDIKAHVNSLGENLKTLRLRLRRCHRFLPCEN", "values": [{"measurement": "HEK-Blue IL10 EC50 (STAT-3 mediated SEAP expression)", "setting": "IL10 receptor", "value": 0.149, "unit": "nM"}]}
